From PMC7539009, “Mechanism and evolution of the Zn-fingernail required for interaction of VARP with VPS29” (Nature Communications, 2020)
One block for each binder: values may come before it.

How the values were obtained:
[1] = molecular target: VPS29 (short isoform, N-terminal sequence MLVL), untagged (UniProt Q9UBQ0-1 1-182); assay: SPR; Biacore T200; GST fusion captured on goat anti-GST antibody coupled to a CM5 chip, GST-CLA on the blank flow cell; VPS29 as analyte, typically 40 to 0.3 μM; 20 mM Tris, 200 mM NaCl, 0.1 mM TCEP, 0.5 μM ZnCl2, pH 7.4; 12 °C for the KD of 2–3 µM; equilibrium and kinetic analysis, single site; conditions: both partners purified
[2] = molecular target: long VPS29 (isoform with the N-terminal sequence …) (UniProt Q9UBQ0-2 1-186); assay: as above; conditions: both partners purified

Kd [1]: > 300 µM
Kd [2]: ~67 µM
B1: GST-TBC1D5 (residues 132–156) (domain or fragment)
chain: GQQDLMINNPLSQDEGSLWNKFFQD
notes: TBC1D5 residues 132-156, holds the Asn Pro Leu motif and the short helix upstream of it; also called TBC1D5 (132–156); not shown: GST, N-terminal, kept

Kd [1]: 55 µM
B2: GST-VARP residues 692-746, 4C mutant (all four Cys to Ser) (domain or fragment)
chain: TEEDLEDAEDTVSAADPEFSHPLSQSPKSAPAQKRLAKVPASGLGVNVTSQDGSSW
notes: non-native Trp residue numbered 747; source: E. coli BL21 (DE3) pLysS, pGEX6P1, purified (GST-Sepharose, S75 Superdex gel filtration); not shown: GST, N-terminal, kept
